Among the data in patent US20180149657A1 (IMMUNOMEDICS, published 2018) are Kd values, retold here.

This test has as its target T1, human Trop-2 (human, UniProt P09758 27-323).
T1 construct: whole, on cells; also called EGP-1; epithelial glycoprotein-1
T1 sequence (looked up): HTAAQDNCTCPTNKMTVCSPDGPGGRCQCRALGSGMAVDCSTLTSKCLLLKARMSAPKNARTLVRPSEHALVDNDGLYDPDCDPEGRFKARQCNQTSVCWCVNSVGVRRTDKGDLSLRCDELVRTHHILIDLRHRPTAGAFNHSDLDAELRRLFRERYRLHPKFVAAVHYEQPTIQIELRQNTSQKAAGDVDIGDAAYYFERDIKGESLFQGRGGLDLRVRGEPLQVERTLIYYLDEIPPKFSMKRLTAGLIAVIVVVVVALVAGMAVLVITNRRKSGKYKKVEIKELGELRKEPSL
In words: cell binding assay on NCI-N87 cells, anti-mouse-HRP secondary, luminescence.

B1: murine RS7 (antibody, V domains shown)
VH: VKLQESGPELKKPGETVKISCKASGYTFTNYGMNWVKQAPGKGLKWMGWINTYTGEPTYTDDFKGRFAFSLETSATTAYLQINNLKSEDMATYFCARGGFGSSYWYFDVWGQGTTVTVSS
VL: DIQLTQSHKFMSTSVGDRVSITCKASQDVSIAVAWYQQKPGQSPKLLIYSASYRYTGVPDRFTGSGSGTDFTFTISSVQAEDLAVYYCQQHYITPLTFGAGTKLELK
The molecule B1 showed a Kd of 0.57 nM.
